Our source for the binding values is publication PMC4267192.

The target in this series is CCA1-GST (UniProt P92973). The experiment in a line: EMSA. The conditions noted are these: 25 mM HEPES-KOH pH 7.5, 50 mM KCl, 2.5 mM DTT, 1 mM PMSF, 10% glycerol, 1 ug poly-dIdC in 10 ul, 20 min on ice (final concentrations calculated from 5X …).
Chain of CCA1-GST (P92973 whole entry): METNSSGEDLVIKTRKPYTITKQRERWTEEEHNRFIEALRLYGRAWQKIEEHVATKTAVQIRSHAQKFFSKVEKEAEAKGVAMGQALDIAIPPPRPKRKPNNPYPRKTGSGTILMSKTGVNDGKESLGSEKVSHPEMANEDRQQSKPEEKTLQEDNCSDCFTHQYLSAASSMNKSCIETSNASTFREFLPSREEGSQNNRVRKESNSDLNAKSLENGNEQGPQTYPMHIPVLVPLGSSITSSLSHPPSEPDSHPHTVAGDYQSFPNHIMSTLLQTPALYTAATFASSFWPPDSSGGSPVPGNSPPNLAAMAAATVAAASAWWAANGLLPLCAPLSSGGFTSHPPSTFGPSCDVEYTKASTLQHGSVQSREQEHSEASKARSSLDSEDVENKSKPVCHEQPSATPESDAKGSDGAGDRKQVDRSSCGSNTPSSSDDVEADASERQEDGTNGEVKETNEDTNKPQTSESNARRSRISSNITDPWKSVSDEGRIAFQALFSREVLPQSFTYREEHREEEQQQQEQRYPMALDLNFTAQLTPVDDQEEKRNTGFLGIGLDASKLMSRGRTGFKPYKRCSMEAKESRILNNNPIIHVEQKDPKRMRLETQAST

As to “GTTAGCTTACGAGCATAAATTGCGAGATCTATCTTACTTCCCCAATGAAAAAAAAATCTCAAAGATTTGGAAGTAGACCTATGAATAGAATTACAATAATACGGCAATACCAATAACAA (double strand) [PHT4;1 promoter probe 2]”, the binding result was “binds”.
The value for “AATCAATTCCTCTCTCTTAAAACAAAGAAGAAAAAAACAGAGAAGAAGAAGAAAAAATCTATCTCCGCCATGAACGCGAGAGCTCTTCTTTGCTCTTCAAATATTCACTCTCTCTAC (double strand) [PHT4;1 promoter probe 3]” was “binds”.
